T1: human PD-L2 protein (monomeric, soluble analyte) (human, UniProt Q9BQ51 20-220)
T1 construct: Recombinant human PD-L2 protein used as analyte on Octet or Biacore; a soluble form would lack the transmembrane part; also called monomeric PD-L2; monomeric human ligand
T1 sequence: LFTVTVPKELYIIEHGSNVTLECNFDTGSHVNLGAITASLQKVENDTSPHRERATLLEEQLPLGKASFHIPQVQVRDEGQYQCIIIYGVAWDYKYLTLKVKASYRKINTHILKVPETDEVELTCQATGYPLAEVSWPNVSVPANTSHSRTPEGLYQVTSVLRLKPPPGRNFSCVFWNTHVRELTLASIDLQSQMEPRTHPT

T2: human PD-L2 (PDCD1LG2) expressed on cells (human, UniProt Q9BQ51 20-273)
T2 sequence: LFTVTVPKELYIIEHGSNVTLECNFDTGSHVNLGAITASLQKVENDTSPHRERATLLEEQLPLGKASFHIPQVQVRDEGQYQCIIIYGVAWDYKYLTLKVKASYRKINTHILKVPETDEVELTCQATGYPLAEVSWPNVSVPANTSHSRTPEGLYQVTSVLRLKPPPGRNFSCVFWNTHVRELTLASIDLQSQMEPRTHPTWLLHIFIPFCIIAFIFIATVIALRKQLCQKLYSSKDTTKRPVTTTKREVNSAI

T3: Human PD-L2-Fc (Homo sapiens, UniProt Q9BQ51)
T3 construct: Antigen in Octet IgG KD Human PD-L2-Fc (M) Avid
T3 sequence (PD-L2-Fc fusion chain, looked up): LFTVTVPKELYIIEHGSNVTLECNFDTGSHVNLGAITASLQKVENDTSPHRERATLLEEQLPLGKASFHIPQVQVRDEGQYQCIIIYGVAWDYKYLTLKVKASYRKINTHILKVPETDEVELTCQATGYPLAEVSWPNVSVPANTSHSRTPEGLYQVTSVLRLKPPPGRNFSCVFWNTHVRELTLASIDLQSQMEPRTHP

T4: mPD-L2 dimer (Mus musculus, UniProt Q9WUL5)
T4 construct: also called mouse PD-L2 protein
T4 sequence (PD-L2 chain, looked up): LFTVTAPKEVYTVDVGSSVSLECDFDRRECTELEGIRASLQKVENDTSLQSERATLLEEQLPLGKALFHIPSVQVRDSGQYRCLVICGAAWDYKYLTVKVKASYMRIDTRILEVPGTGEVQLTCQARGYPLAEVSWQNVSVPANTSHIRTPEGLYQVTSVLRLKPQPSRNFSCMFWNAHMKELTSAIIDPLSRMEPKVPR


Columns and labels:
[1] = molecular target: T5, human PD-L1 protein (monomeric, soluble analyte) (human, UniProt Q9NZQ7 19-238); test: Octet, monomeric human ligand
T5 construct: Recombinant human PD-L1 protein used as analyte on Octet or Biacore; also called monomeric PD-L1; monomeric human ligand

[2] = molecular target: T1, human PD-L2 protein (monomeric, soluble …); test: Octet, monomeric human ligand
[3] = molecular target: T6, human PD-L1 (CD274) expressed on cells (human, UniProt Q9NZQ7 19-290); test: cell-based or functional assay
[4] = molecular target: T2, human PD-L2 (PDCD1LG2) expressed on …; test: cell-based or functional assay
Human PD-L1-Fc [5] = molecular target: T7, Human PD-L1-Fc (Homo sapiens, UniProt Q9NZQ7); test: Octet, IgG KD, avid format, human PD-L1-Fc
T7 construct: Antigen in Octet IgG KD Human PD-L1-Fc (M) Avid

Human PD-L2-Fc [6] = molecular target: T3, Human PD-L2-Fc; test: Octet, IgG KD, avid format, human PD-L2-Fc
[7] = molecular target: T5, human PD-L1 protein (monomeric, soluble …); test: Biacore, IgG KD, monovalent format, human PD-L1-His
[8] = molecular target: T1, human PD-L2 protein (monomeric, soluble …); test: Biacore, IgG KD, monovalent format, human PD-L2-His
Human INSR BioVendor = molecular target: T8, Human INSR BioVendor (Homo sapiens, UniProt P06213-2); test: Octet, IgG KD, monovalent format, human INSR BioVendor
T8 construct: recombinant soluble protein used in Octet, monovalent format; Antigen of the column Octet IgG KD Human INSR BioVendor (M) Monovalent

[9] = molecular target: T6, human PD-L1 (CD274) expressed on cells; test: flow cytometry on live transfected HEK293 cells, dose range 0-300 µg/mL
Experimental: (§1) Human HEK293 cells were transfected with expression vectors encoding ZsGreen1 only, or ZsGreen1 and CD274 (PD-L1), PDCD1LG2 (PD-L2), INSR isoform long, INSR Isoform short or CD20 (assay control). […] Cells were washed, and incubated with the same AF647 anti-human IgG Fc detection antibody as used in the cell microarray screens. Cells were again washed, and analyzed by flow cytometry using an Accuri flow cytometer (BD). A 7AAD live/dead dye was used to exclude dead cells in the analysis, and ZsGreen+ (transfected) cells were selected for analysis.
(§2) Interactions were then investigated by flow cytometry.

[10] = molecular target: T2, human PD-L2 (PDCD1LG2) expressed on …; test: as above
Experimental: as §1, §2

[11] = molecular target: T9, INSR isoform long, over-expressed on HEK293 cells (human, UniProt P06213 28-1382); test: as above
T9 construct: whole, on cells; Long isoform of the UniProt entry; also called INSR long isoform
Experimental: as §1, §2

Human PD-L1-Fc [12] = molecular target: T7, Human PD-L1-Fc; test: Octet, column hPD-L1 dimer; unit Molar from the legend
Human PD-L2-Fc [13] = molecular target: T3, Human PD-L2-Fc; test: Octet, column hPD-L2 dimer; unit Molar from the legend
mPD-L1 dimer = molecular target: T10, mPD-L1 dimer (Mus musculus, UniProt Q9EP73); test: Octet, column mPD-L1 dimer; unit Molar from the legend
T10 construct: also called mouse PD-L1 protein
Experimental: (§3) Antibody Characterization. Antibody candidates generated from yeast-surface display screening were tested for the capacity to bind to PD-L1 or PD-L2.

mPD-L2 dimer = molecular target: T4, mPD-L2 dimer; test: Octet, column mPD-L2 dimer; unit Molar from the legend
Experimental: as §3

[14] = molecular target: T5, human PD-L1 protein (monomeric, soluble …); test: Octet, IgG KD, monovalent format, human PD-L1-His
[15] = molecular target: T1, human PD-L2 protein (monomeric, soluble …); test: Octet, IgG KD, monovalent format, human PD-L2-His

T7 sequence (Q9NZQ7 19-239 limits assumed): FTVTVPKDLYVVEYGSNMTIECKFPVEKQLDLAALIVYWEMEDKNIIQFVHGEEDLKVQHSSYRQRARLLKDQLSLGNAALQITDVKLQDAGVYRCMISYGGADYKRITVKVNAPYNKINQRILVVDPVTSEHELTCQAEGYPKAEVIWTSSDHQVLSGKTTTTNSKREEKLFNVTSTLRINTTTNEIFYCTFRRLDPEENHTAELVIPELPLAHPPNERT
T5 sequence (Q9NZQ7 19-238 limits assumed): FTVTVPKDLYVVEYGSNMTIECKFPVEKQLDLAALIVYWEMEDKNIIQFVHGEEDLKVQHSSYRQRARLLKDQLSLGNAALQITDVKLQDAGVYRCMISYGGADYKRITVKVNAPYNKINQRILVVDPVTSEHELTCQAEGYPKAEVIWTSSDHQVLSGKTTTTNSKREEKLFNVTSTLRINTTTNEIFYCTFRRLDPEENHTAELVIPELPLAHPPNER
T6 sequence (Q9NZQ7 19-290 limits assumed): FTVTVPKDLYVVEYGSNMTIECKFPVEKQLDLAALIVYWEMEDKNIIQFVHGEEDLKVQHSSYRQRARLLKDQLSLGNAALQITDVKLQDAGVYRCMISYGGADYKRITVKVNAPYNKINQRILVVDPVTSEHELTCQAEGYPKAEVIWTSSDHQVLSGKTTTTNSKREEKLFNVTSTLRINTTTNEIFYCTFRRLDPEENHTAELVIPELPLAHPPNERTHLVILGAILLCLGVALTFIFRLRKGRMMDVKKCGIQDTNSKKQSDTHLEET
T10 sequence (Q9EP73 19-238 limits assumed): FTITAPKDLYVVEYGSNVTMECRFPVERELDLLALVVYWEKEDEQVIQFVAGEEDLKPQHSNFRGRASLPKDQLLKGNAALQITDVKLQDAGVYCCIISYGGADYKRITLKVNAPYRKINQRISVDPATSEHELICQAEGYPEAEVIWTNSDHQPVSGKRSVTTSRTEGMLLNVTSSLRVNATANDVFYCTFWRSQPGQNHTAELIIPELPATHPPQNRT

Kd [1] | Kd [2] | EC50 (read off the curve) [3] | EC50 (read off the curve) [4] | Kd (Human PD-L1-Fc [5]) | Kd (Human PD-L2-Fc [6]) | Kd [7] | Kd [8] | binding result (Human INSR BioVendor) | EC50 [9] | EC50 [10] | EC50 [11] | Kd (Human PD-L1-Fc [12]) | Kd (Human PD-L2-Fc [13]) | Kd (mPD-L1 dimer) | Kd (mPD-L2 dimer) | Kd [14] | Kd [15] | Binder
7.62 nM | 1.9 nM | ~1 nM | ~0.5 nM | 1.28 nM | 0.601 nM | 3.76 nM | 0.727 nM | no binding | 0.03 mg/L | 0.1 mg/L | 145 mg/L | 1.28 nM | 0.601 nM | 3.2 nM | 0.7 nM | – | – | ADI-38002 (antibody, human IgG1, kappa, V domains shown, Human IgG1 (GASDIE); Some in vivo work used a mouse IgG2a form; also called Ab-38002; test antibody 38002) VH: QVQLQQWGAGLLKPSETLSLTCAVYGGSLSGYPWSWIRQPPGKGLEWIGETDVSGWTDYNPSLKSRVTISVDTSKNQFSLKLSSVTAADTAVYYCARDGRRMGTPSFDIWGQGTMVTVSS VL: DIQMTQSPSSVSASVGDRVTITCRASQDINSFLAWYQQKPGKAPKLLIYAASSLNSGVPSRFSGSGSGTDFTLTISSLQPEDFATYYCQKSVYFPPTFGGGTKVEIKR
– | – | – | – | 1.27 nM | 0.377 nM | 8.09 nM | 0.175 nM | – | – | – | – | – | – | – | – | 14.2 nM | 1.02 nM | ADI-38003 (antibody, V domains shown) VH: QVQLQQWGAGLLKPSETLSLTCAVYGGSLSGYPWSWIRQPPGKGLEWIGETDVSGWTDYNPSLKSRVTISVDTSKNQFSLKLSSVTAADTAVYYCARDGRRMGTPSFDIWGQGTMVTVSS VL: DIQMTQSPSSVSASVGDRVTITCRASKGISSFLAWYQQKPGKAPKLLIYAASSLNSGVPSRFSGSGSGTDFTLTISSLQPEDFATYYCQKAVYFPPTFGGGTKVEIKR
– | – | – | – | 1.52 nM | 0.426 nM | 2.76 nM | 0.508 nM | – | – | – | – | – | – | – | – | 6.23 nM | 1.6 nM | ADI-37464 (antibody, V domains shown) VH: QVQLQQWGAGLLKPSETLSLTCAVYGGSLSGYPWSWIRQPPGKGLEWIGETDVSGWTDYNPSLKSRVTISVDTSKNQFSLKLSSVTAADTAVYYCARDGRRMGTPSFDIWGQGTMVTVSS VL: DIQMTQSPSSVSASVGDRVTITCRASQGINSFLAWYQQKPGKAPKLLIYAASSLNSGVPSRFSGSGSGTDFTLTISSLQPEDFATYYCQKAVYFPPTFGGGTKVEIKR
– | – | – | – | 1.22 nM | 0.597 nM | 37.7 nM | 1.24 nM | – | – | – | – | – | – | – | – | 20 nM | 2.84 nM | ADI-38004 (antibody, V domains shown) VH: QVQLQQWGAGLLKPSETLSLTCAVYGGSLSGYPWSWIRQPPGKGLEWIGETDVSGWTDYNPSLKSRVTISVDTSKNQFSLKLSSVTAADTAVYYCARDGRRMGTPSFDIWGQGTMVTVSS VL: DIQMTQSPSSVSASVGDRVTITCRASQGISSFLAWYQQKPGKAPKLLIYAASSLNSGVPSRFSGSGSGTDFTLTISSLQPEDFATYYCQSAVYFPPTFGGGTKVEIKR
